Results taken from publication PMC5899157 (2018).

B2: mCXCL1 displayed on the surface of yeast as N-terminal fusion of Aga2p (ligand)
chain: APIANELRCQCLQTMAGIHLKNIQSLKVLPSGPHCTQTEVIATLKNGREACLDPEAPLVQKIVQKMLKGVPK
B4: mCXCL2 displayed on the surface of yeast as N-terminal fusion of Aga2p (ligand)
chain: AVVASELRCQCLKTLPRVDFKNIQSLSVTPPGPHCAQTEVIATLKGGQKVCLDPEAPLVQKIIQKILNKGKAN

Assays:
Assay in all cases: FACS
hCXCL3 = molecular target: hCXCL3
hCXCL6 = molecular target: hCXCL6
hCXCL8 = molecular target: hCXCL8
hCXCL5 = molecular target: hCXCL5
hCXCL2 = molecular target: hCXCL2
[1] = molecular target: T1, mCXCL5 displayed on the surface of yeast as N-terminal fusion of Aga2p (mouse)
T1 chain: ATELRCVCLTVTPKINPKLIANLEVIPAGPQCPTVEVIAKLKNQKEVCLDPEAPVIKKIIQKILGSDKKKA

[2] = molecular target: B4
[3] = molecular target: B2
[4] = molecular target: T2, mCXCL3 displayed on the surface of yeast as N-terminal fusion of Aga2p (mouse, UniProt Q6W5C0 32-100)
T2 chain: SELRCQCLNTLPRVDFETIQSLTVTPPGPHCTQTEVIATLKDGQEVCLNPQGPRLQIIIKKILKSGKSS

[5] = molecular target: SA157*, separate mouse serum albumin fusions of the VL and VH domains of CK157 mixed in equimolar amounts
[6] = molecular target: wild-type hCXCL1 displayed on the surface of yeast as N-terminal fusion of Aga2p (human, UniProt P09341 35-107)
Chain of wild-type hCXCL1 displayed on the surface of yeast as N-terminal fusion of Aga2p (P09341 35-107): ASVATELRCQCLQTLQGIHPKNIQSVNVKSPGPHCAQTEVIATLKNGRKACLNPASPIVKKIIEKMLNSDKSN

B1: SA138, mouse serum albumin fused to the CK138 single-chain variable antibody fragment (scFv, V domains shown)
VH: EVQLVESDGGLVQPGGSLRLSCAASGFNLSYYGMHWVRQAPGKGLEWVAYIASYPGYTSYADSVKGRFTISADTSKNTAYLQMNSLRAEDTAVYYCARSGYSYSPYYSWFSAGMNYWGQGALVTVSS
VL: AIQMTRSPSSLSASVGDRVTITCRASQYHDGSAAWYQQKPGKAPKLLIYGASYLYSGVPSRFSGSRSGTDFTLTISSLQPEDFATYYCQQSSYSLITFGQGTKVEIK
B1 was tested. Which Kd (hCXCL3) did it give?
Its Kd is 836 nM.

What about the Kd (hCXCL6) of the same binder?
Its Kd is 5000 nM.

And the Kd (hCXCL8)?
Its Kd is 14.7 nM.

And the Kd (hCXCL5)?
The Kd was 33.7 nM.

And the Kd (hCXCL2)?
The Kd was 1590 nM.

What about the Kd [1] of the same binder?
Its Kd is 357 nM.

What about the Kd [2] of the same binder?
The Kd was 16.7 nM.

What about the Kd [3] of the same binder?
The Kd was 29.4 nM.

What about the Kd [4] of the same binder?
The Kd was 31.1 nM.

Which Kd [5] does the source give for B2 here?
The Kd was 666 nM.

B3: SA129, mouse serum albumin fused to the CK129 single-chain variable antibody fragment (scFv, V domains shown)
VH: EVQLVESGGGLVQPGGSLRLSCAASGFNISSYGSMHWVRQAPGKGLEWVASIYPYSSSTYYADSVKGRFTISADTSKNTAYLQMNSLRAEDTAVYYCARGYGPWYAYSYFALDYWGQGTLVTVSS
VL: DIQMTQSPSPLSASVGDRVTITCRASQYGGYVAWYQQKPGKAPKLLIYGASLLYSGVPSRFSGGRSGTDFTLTISSLQPEDFATYYCQRGHALITFGQGTKVEIE
Which results are given for B3?
Kd (hCXCL3): 9.2 nM; Kd (hCXCL2): 43.6 nM; Kd [6]: 2.7 nM; Kd [3]: 2.9 nM

With B4 as the binder, how does the Kd [5] read?
Its Kd is 591 nM.
